This is an account of results in patent publication US20060269549A1 (APPLIED MOLECULAR EVOLUTION, published 2006).

Where a chain is given by its changes, count along the chain named. Names may count otherwise.

Assay [1] concerns the target T1, human TNF-α (human, UniProt P01375 77-233).
T1 construct: It was biotinylated in some screening assays; also called hTNF-α; hTNF
Nature of the assay: ELISA, Fab dilution series on human TNF-α (Example 1; the filing does not say which of its two ELISA formats: hTNF-α-coated plate, or Fab captured on anti-human kappa with 5 nM biotinylated hTNF-α). In general terms: An ELISA detects its analyte on a solid surface through an enzyme-linked reagent.

The target in assay [2] is T1, human TNF-α. Nature of the assay: KinExA 3000 kinetic exclusion assay.
Assay [3] addresses T1, human TNF-α. Briefly: cell-based or functional assay.
The target in assay [4] is T1, human TNF-α. Nature of the assay: KinExA 3000 kinetic exclusion assay, 40 pM Fab mixed with 400 pM hTNF-α, time course. The protocol:
(§1) Next, binding kinetics of three of the Fab fragments described in Table 4 were determined in a kinetic exclusion assay. Affinity measurements were performed on a KinExA™3000 instrument (Sapidyne Instruments, Inc., Boise, Id.) using Fab fragments (A10K, A9K, and A10P) released from the periplasmic space whose concentration was determined by a quantitative ELISA. Briefly, antigen and antibody fragment were allowed to react in solution and the fraction of unbound reagent was determined by capture and measured on a bead support. Binding kinetics can be determined or calculated from the amount of unbound reagent. For instance, after interaction between TNF-α and a Fab fragment has occurred in solution, binding of the unreacted, free Fab fragment to TNF-α coated beads can be measured on the instrument by detection with a labeled secondary antibody to the Fab fragment (e.g., a goat anti-IgG (heavy and light)). […] After the incubation, the amount of unbound Fab in the equilibrated samples was determined on the KinExA™3000 instrument according to the manufacturer's instructions. Kd values were determined by the instrument software.
(§2) To measure kₒₙ, individual Fab fragments at a concentration of 40 pM were mixed with 400 pM of hTNF-α. […] The resulting data was used to calculate the kₒₙ with the instrument software. koff was calculated by using the formula Kd=koff/kₒₙ.

Assay [5] addresses T1, human TNF-α. Nature of the assay: calculated from Kd = koff/kon (KinExA). Here is the method: (§3) Next, binding kinetics of three of the Fab fragments described in Table 4 were determined in a kinetic exclusion assay. Affinity measurements were performed on a KinExA™3000 instrument (Sapidyne Instruments, Inc., Boise, Id.) using Fab fragments (A10K, A9K, and A10P) released from the periplasmic space whose concentration was determined by a quantitative ELISA. Briefly, antigen and antibody fragment were allowed to react in solution and the fraction of unbound reagent was determined by capture and measured on a bead support. Binding kinetics can be determined or calculated from the amount of unbound reagent. For instance, after interaction between TNF-α and a Fab fragment has occurred in solution, binding of the unreacted, free Fab fragment to TNF-α coated beads can be measured on the instrument by detection with a labeled secondary antibody to the Fab fragment (e.g., a goat anti-IgG (heavy and light)). […] For A10K and A10P, the Fab concentration was 10 pM with the human TNF-α concentration beginning at 160 pM and then serially diluted to 0.078 pM with the final tube containing no human TNF-α. A9K incubation was set in a similar manner, with the Fab at a constant concentration of 20 pM and human TNF-α serially diluted beginning at 500 pM with a final concentration of 0.24 pM. After the incubation, the amount of unbound Fab in the equilibrated samples was determined on the KinExA™3000 instrument according to the manufacturer's instructions. Kd values were determined by the instrument software.
To measure kₒₙ, individual Fab fragments at a concentration of 40 pM were mixed with 400 pM of hTNF-α. A series of measurements were taken over a time course. The resulting data was used to calculate the kₒₙ with the instrument software. koff was calculated by using the formula Kd=koff/kₒₙ.

The target in assay [6] is T1, human TNF-α. Briefly: KinExA 3000 kinetic exclusion assay, periplasmic Fab with hTNF-α in solution, 20 h at 20 C. The protocol:
as §3
Background: A kinetic exclusion assay measures how much of one partner remains free in solution.

Assay [7] deals with T1, human TNF-α. Nature of the assay: KinExA 3000 kinetic exclusion assay, 40 pM Fab mixed with 400 pM hTNF-α, time course; lower end of the printed range for A10K. The protocol: as §1, §2

T1 sequence (P01375 77-233 limits assumed): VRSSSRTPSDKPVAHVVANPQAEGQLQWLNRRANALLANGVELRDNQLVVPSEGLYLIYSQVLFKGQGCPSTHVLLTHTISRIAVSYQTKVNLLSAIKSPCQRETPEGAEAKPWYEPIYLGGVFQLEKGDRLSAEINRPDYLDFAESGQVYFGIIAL

B1: 2E7K Fab fragment (Fab, name in Kabat numbering, V domains shown)
VH: EVQLVESGGGLVQPGGSLRLSCAASGFKFSNHWMNWVRQAPGKGLEWVGEIRSKSMNSATHYARSVKGRFTISRDDSKNSLYLQMNSLKTEDTAVYYCARNYYGSTYDHWGQGTLVTVSS
VL: EIVLTQSPDFQSVTPKEKVTITCRASQFVGLSIHWYQQKPDQSPKLLIKYASESRSGVPSRFSGSGSGTDFTLTINSLEAEDAATYYCQQSHSWHFTFGQGTKVEIK
What is called EC50 (read off the curve) is the concentration that produces a half-maximal response. Low readings indicate higher potency in that assay, high ones lower potency in that assay. On to B1, for which the “EC50 (read off the curve)” value with human TNF-α [1] is ~0.02 mg/L.

B2: AME 3-2 antibody (antibody, V domains shown)
VH: B1 VH with K28T, S30R, M56I, H61F, R64E, T106Y
VL: DIQMTQSPSSLSASVGDRVTITCVTTQFVGYAIHWYQQKPGKAPKLLIYYASSSRSGVPSRFSGSGSGTDFTLTISSLQPEDFATYYCQQSHGWPFTFGQGTKVEIK
In general, Kd refers to the concentration at which binding is half-saturated. A higher Kd goes with lower affinity. By koff is commonly meant the rate constant with which the complex falls apart. The term kon denotes the rate constant with which the complex forms. Take B2: in the assay with human TNF-α [2], binding was put at a Kd of 0.01 pM, the koff was found to be 2.6e-08 s⁻¹ and the kon was 2.6e+06 M⁻¹ s⁻¹.

B3: A10K IgG (antibody, V domains shown)
VH: B1 VH with R64E
VL: B1 VL with L31Y
As to B3, the “EC50, L929 cell protection assay (FIG. 10)” value with human TNF-α [3] is ~2.7 pM.

B4: 2E7P Fab fragment (Fab, name in Kabat numbering, V domains shown)
VH: B1 VH with K28P
VL: B1 VL
Turning to B4, the “EC50 (read off the curve)” value in the assay with human TNF-α [1] is ~0.03 mg/L.

B5: A9K Fab fragment (Fab, name in Kabat numbering, V domains shown)
VH: B1 VH
VL: B1 VL with L31M, R55K
In the assay with human TNF-α [4], B5 gave a kon of 2.6e+06 M⁻¹ s⁻¹. In the assay with human TNF-α [5], the koff is 6.2e-06 s⁻¹. Besides, the “EC50 (read off the curve)” value with human TNF-α [1] was ~0.02 mg/L. In addition, the Kd with human TNF-α [6] is 2.4 pM.

B6: 2C6K Fab fragment (Fab, name in Kabat numbering, V domains shown)
VH: B1 VH with M56I
VL: B1 VL with S54Y, R55M
For B6, the “EC50 (read off the curve)” value in the assay with human TNF-α [1] is ~0.02 mg/L.

B7: 2C6P Fab fragment (Fab, name in Kabat numbering, V domains shown)
VH: B1 VH with K28P, M56I
VL: B1 VL with S54Y, R55M
For the molecule B7, the “EC50 (read off the curve)” value with human TNF-α [1] is ~0.02 mg/L.

B8: A10K Fab fragment (Fab, V domains shown)
VH: B1 VH with R64E
VL: B1 VL with L31Y
notes: Fab released from the E. coli periplasm; Mutations against hu1: light S31Y, M55R; heavy T28K, I53M
Regarding B8, in the assay with human TNF-α [5], the koff was 1.96e-05 to 3.76e-05 s⁻¹. Besides, in the assay with human TNF-α [3], the “EC50, L929 cell protection assay (FIG. 8)” value is ~25 pM and the “EC50, L929 cell protection assay (FIG. 9)” value is ~67 pM. Also, in the assay with human TNF-α [1], the “EC50 (read off the curve)” value was ~0.02 mg/L. Further, the kon with human TNF-α [7] lay in the range of 3.9e+06 to 7.51e+06 M⁻¹ s⁻¹. In addition, in the assay with human TNF-α [6], the dissociation constant Kd is 3.5 to 7.2 pM.

B9: hu1 Fab fragment (Fab, V domains shown)
VH: B1 VH with K28T, M56I, R64E
VL: B1 VL with L31S, R55M
notes: Parent Fab with fully human frameworks
B9: the binding result with human TNF-α [1] is on record as “binds”.

B10: A10P Fab fragment (Fab, name in Kabat numbering, V domains shown)
VH: B1 VH with K28P, R64E
VL: B1 VL with L31Y
On to B10, for which, in the assay with human TNF-α [4], the kon amounted to 4.1e+06 M⁻¹ s⁻¹. In addition, in the assay with human TNF-α [5], the off-rate (koff) was 8.2e-06 s⁻¹. For the same molecule, the “EC50 (read off the curve)” value in the assay with human TNF-α [1] was ~0.02 mg/L. Besides, the Kd in the assay with human TNF-α [6] turned out to be 2 pM.

B11: A9P Fab fragment (Fab, name in Kabat numbering, V domains shown)
VH: B1 VH with K28P
VL: B1 VL with L31M, R55K
Consider B11, for which the “EC50 (read off the curve)” value with human TNF-α [1] is ~0.02 mg/L.
